# Measured values published in paper PMC3098940 (ACS chemical biology, 2011).
# B1: phosphorylated Stat3β (residues 127-722), wildtype (domain or fragment, murine, UniProt P42227-2 127-722, looked up)
# chain: GQANHPTAAVVTEKQQMLEQHLQDVRKRVQDLEQKMKVVENLQDDFDFNYKTLKSQGDMQDLNGNNQSVTRQKMQQLEQMLTALDQMRRSIVSELAGLLSAMEYVQKTLTDEELADWKRRQQIACIGGPPNICLDRLENWITSLAESQLQTRQQIKKLEELQQKVSYKGDPIVQHRPMLEERIVELFRNLMKSAFVVERQPCMPMHPDRPLVIKTGVQFTTKVRLLVKFPELNYQLKIKVCIDKDSGDVAALRGSRKFNILGTNTKVMNMEESNNGSLSAEFKHLTLREQRCGNGGRANCDASLIVTEELHLITFETEVYHQGLKIDLETHSLPVVVISNICQMPNAWASILWYNMLTNNPKNVNFFTKPPIGTWDQVAEVLSWQFSSTTKRGLSIEQLTTLAEKLLGPGVNYSGCQITWAKFCKENMAGKGFSFWVWLDNIIDLVKKYILALWNEGYIMGFISKERERAILSTKPPGTFLLRFSESSKEGGVTFTWVEKDISGKTQIQSVEPYTKQQLNNMSFAEIIMGYKIMDATNILVSPLVYLYPDIPKEEAFGKYCRPESQEHPEADPGSAAPYLKTKFICVTPFIDAVWK
# modifications: phosphotyrosine at 705
# Target: the molecule itself
# Assay: SEC
protein,measurement,value
B1,stoichiometry N,2
